Assay results: patent US20150258217A1, “Methods of Synthesizing and Using Peg-Like Fluorochromes” (THE GENERAL HOSPITAL CORPORATION, priority 2012, published 2015)

Key:
[1] = PN and peptide size (volume, diameter) by FPLC gel filtration (Superdex 200, globular protein standards); type: physicochemical; conditions: for Molecular Volume FPLC: Table 3B, dipeptides; for Volume FPLC (diameter) / Volume FPLC: Table 5; for Volume FPLC (diameter): converted from globular protein equivalent MW; for Volume FPLC: globular protein equivalent molecular weight
Procedure: DOTA-Lys-Cys(IR783)-NH2 is then dissolved in DMSO, with 2 equivalents of an NHS ester of PEG and 6 equivalents of DIPEA. The reaction was at room temperature for 5 days. Product was purified by reverse phase HPLC separation. Product molecular weight was by matrix-assisted laser desorption ionization time-of-flight mass spectrometry (MALDI-TOF MS), with product molecular volume by size exclusion FPLC using globular protein standards (GE Healthcare life science AKTApurifier 10).
The mass spec of low molecular weights (MW) were obtained by MS-ESI Micromass (Waters) and high MW molecules were determined through MALDI-TOF analyses at the Tufts University Core Facility. RP-HPLC (Varian ProStar detector and delivery modules) employed an eluant A (0.1% TFA/water) and eluant B (0.1% TFA and 9.9% water in acetonitrile). Probe size (volume) was determined by FPLC using an ÄKTA Purifier 10 and Superdex™ 200 10/300GL column (GE Healthcare) with a running buffer of 0.05 M sodium phosphate, 0.15 M NaCl (0.1% Tween, pH 7.2) and flow rate of 0.8 ml/min. Standards (GE Healthcare) were Ferritin, Ribonuclease A, Carbonic Anhydrase, and Conalbumin and Blue Dextran 2000. To obtain probe volumes, Mr (apparent molecular weight based on size exclusion retention) was plotted versus Kav. Kav=(Ve−Vo)/(Vt−Vo), Vt=total volume, Ve=elution volume, Vo=void volume.
The column was calibrated with globular protein standards, and globular protein equivalent molecular weights (in kDa) were obtained (Table 5, column 5). These were converted to PN diameters in nm using the relationship: Radius in nm=[…] where M is the molecular weight of a globular protein expressed in daltons (see Erickson, “Size and Shape of Protein Molecules at the Nanometer Level Determined by Sedimentation, Gel Filtration, and Electron Microscopy”, Biological Procedures Online 2009, 11(1): 32-50). PN's diameters ranged from 3.0 to 11.8 nm (see FIG. 23a). Using PEG's of 5 kDa and 30 kDa, selected for their low polydispersity, PN's were synthesized using IR-783, Cy3 and Fluorescein (see FIG. 22a) and their sizes determined (see FIGS. 23a, 23b, 23c). With the 5 kDa PEG and these three fluorochromes (see the magenta chromatograms in FIGS. 22a, 23b and 23c) PN diameters were 4.3 nm. With the 30 kDa PEG and these three fluorochromes (blue chromatograms, 23a, 23b, 23c), PN diameters were now 10.0 nm. For reference, the diameter of a 67 kDa albumin determined by this method was 5.4 nm.

[2] = test system: HT-29, a human colon carcinoma cell line; experiment: PN and peptide binding to cells (non-specific binding, FACS); type: cell-based; conditions: HT-29 cells, 30 min at 37° C., FACS
Procedure: HT-29, a human colon carcinoma cell line, was from the American Tissue Culture Collection and maintained according to their instructions. Cells were seeded on 24-well plates at 5×10^5 cells/well in culture medium (RPMI 1640 with 10% FBS) the day before the assay. The day of assay, medium was removed, wells rinsed twice with DPBS (+Ca, +Mg), and 100 μl of 2% FBS/DPBS (+Ca, +Mg) added. 100 μL of Nanoprobes (2 μM) in DPBS (+Ca, +Mg) was added to cells and incubated for 30 min at 37° C. (Probe concentrations were determined spectrophotometrically (783 nm, extinction coefficient of 314 471 cm^−1 M^−1 for IR-783; 497 nm, extinction coefficient of 68 000 cm^−1 M^−1 for Fluorescein; 545 nm, extinction coefficient of 150 000 cm^−1 M^−1 for Cy3). Cells were detached by Trypsin/EDTA and assayed for fluorescence by FACS (BD 7 laser LSR2 for nanoprobes with IR-783; BD 3 laser LSR2 for nanoprobes with Fluorescein or Cy3).

[3] = Quantum yield determination; type: physicochemical; conditions: for Quant. Yield: Table 5, in PBS
Procedure: Quantum yields were determined as described in Demas et al., “Measurement of photoluminescence quantum yields. Review”, Journal of Physical Chemistry 75, 991-1024 (1971), and Shao et al., “Facile Synthesis of Monofunctional Pentamethine Carbocyanine Fluorophores. Dyes and pigments: an international journal 90, 119-122 (2011). For IR-783 a reference quantum yield of 0.043 was used (see Li et al., “Synthesis and characterization of glucosamine-bound near-infrared probes for optical imaging”, Organic letters 8, 3623-3626, 2006); for fluorescein a reference quantum yield was […] (see Sjoback et al., “Absorption and florescence properties of fluorescein”, Spectrohimica Acta Part A 51, L7-L21, 1995). For Cy3 a reference quantum yield of 0.31 was used (Luminprobe Inc). For PN(783)'s, excitation was at 730 nm and emission spectra were recorded from 765 nm to 870 nm in PBS and maximum emission used. For PN(545)'s, excitation was at 515 nm and emission spectra were recorded from 538 nm to 700 nm in PBS and maximum emission used. For PN(497)'s, excitation was at 450 nm and emission spectra were recorded from 475 nm to 620 nm in PBS and maximum emission used. Absorbance of each probe was adjusted less than 0.1. Measurements were made in triplicate and are expressed as mean±SD.

[4] = Blood half-life from serum fluorescence after tail injection; type: in vivo; conditions: mouse, IV; single decay constant fit
Procedure: Using these procedures and PEG's of different molecular weights, PEG-like NIR fluorochromes of different molecular weights, volumes and pharmacokinetics were synthesized, with results summarized in Table 3B. Blood half-lives were determined by tail injection into mice and measuring serum fluorescence as a function of time. Data (fluorescence versus time) were fit to a single decay constant equation to yield blood half-lives. Human pharmacokinetics will be far slower than that of mice.

[5] = Circulating form of PN's (FPLC of serum after IV injection); type: in vivo, mouse; conditions: nude mice, 20 nmoles
Procedure: 20 nmoles of PN(783)4.3, PN(783)6.1, or PN(783)10.0 was injected (IV, tail vein) into nude mice (female; 25-30 g; 6-8 weeks old; nu/nu). At the indicated time, 50 μl of blood was collected with microhematocrit capillary tube (Fisher Scientific) from the tail, and transferred to Eppendorf microcentrifuge tube with anticoagulant (EDTA) coating (Fisher Scientific). Tubes were centrifuged (5000 rpm for 5 minutes), and the supernatant was injected to the FPLC, a ÄKTA Purifier 10 with Superdex™ 200 10/300GL column.

[6] = literature/vendor reference value; cited from earlier work
[7] = test system: GFP expressing BT-20 breast carcinoma xenograft; experiment: Tumor surface fluorescence after peritumoral (DMR) or IV injection; type: in vivo, mouse; conditions: BT-20 tumors, 24 hours post injection
Procedure: Day 1, BT-20 cells were planted into 24-well plate at 750,000 cells/well in culture medium (EMEM with 10% FBS). Day 2, the old culture medium was replaced with new culture medium containing lenti-virus (1×10^8 particles/mL) and protamine sulphate (American Pharmaceutical Partners, Los Angelus, Calif.; 10 mg/mL; 1:500 of total volume of medium). Day 3, after 16 hours of transfection, medium was changed to the culture medium (EMEM with 10% FBS). 8 hours later, green cells could be seen via fluorescence microscope.
All animal experiments were approved by the Institutional Review Committee of Massachusetts General Hospital. Female nude mice (25-30 g; 6-8 weeks old; nu/nu; Cox 7, Massachusetts General Hospital, Boston, Mass.) were anesthetized with isoflurane/O2. Tumor cell implantation was performed both sides around the shoulder. 200 μl of cell suspension containing 10^6 cells in Matrigel (BD) was injected subcutaneously. Tumor cells were inoculated for 7 to 10 days.
The diffusion and molecular retention required of the DMR technique with a tumor bearing model were investigated. We peritumorally injected the RGD probe into an animal bearing two GFP expressing BT-20 breast carcinomas and monitored tumor GFP fluorescence and probe fluorescence as a function of time after injection. The non-integrin binding RAD probe was injected into a second animal also bearing two tumors. Overlaying purple probe fluorescence over green GFP yields white. […] Tumor surface fluorescence from both probes was quantified by the use of solution standards.
In FIG. 8a), two animals bearing two tumors were PT injected with the RGD probe or RAD probe as indicated and surface fluorescence images were obtained. […] In FIG. 8b), quantitation of tumor surface fluorescence after injections of the RGD or RAD probes as above. Surface fluorescence was quantified through the use of standard solutions.
To compare the DMR and intravenous (IV) methods, surface fluorescence images of tumor GFP and RGD probe fluorescence were obtained with skin removed, and overlays from the two signals obtained. With both DMR and IV administration, probe fluorescence extended beyond tumor GFP margins to a stromal area beyond the tumor. However, tumor fluorescence was far higher with DMR than IV injection, even though dose was far lower (50 pmoles/mouse by DMR versus 2000 pmoles/mouse by IV).
In FIG. 9a), skin covering GFP-BT-20 tumor was removed. Shown are visible GFP fluorescence, probe (CyAL5.5) fluorescence, and the overlay of GFP and probe fluorescence plus an X-ray image. Green GFP plus purple CyAL5.5 fluorescence yielded a white overlaid image. In FIG. 9b), with DMR or IV, probe fluorescence included a stromal zone of integrin binding surrounding the tumor was seen. […]

[8] = Diffusion and elimination after intramuscular administration (surface fluorescence); type: in vivo; conditions: nude mouse, front extremity, 24 hours post injection
Procedure: The diffusion and elimination of the non-integrin binding RAD probe after an intramuscular administration in the front extremity of a nude mouse was visualized. Using surface fluorescence, the probe rapidly diffused through the extremity and shoulder of the mouse, with vascular uptake and renal elimination evident from bladder fluorescence at 4 hours post injection.

[9] = Probe volume determination by FPLC (Superdex 75, globular protein standards); type: physicochemical
Procedure: Size (volume) was determined by FPLC using an ÄKTA Purifier 10 and Superdex™ 75 10/300 GL column (GE Healthcare Lifesciences) with a running buffer of 0.05 M sodium phosphate, 0.15 M NaCl (0.1% Tween, pH 7.2) and flow rate of 0.5 ml/min. The protein standards (Gel Filtration Calibration Kit LMW, code no. 28-4038-41, GE Healthcare) (0.3 mg/ml, mixture of Aprotinin, Ribonuclease A, Ovalbumin, and Conalbumin) and Blue Dextran 2000 were used. To obtain volumes, Mr (apparent molecular weight based on size exclusion retention) was plotted versus Kav. Kav=(Ve−Vo)/[…], Vt=total volume, Ve=elution volume, Vo=void volume.

(DOTA)Lys(PEG2K)-Cys(IR-783) [PN(783)3.0]
Molecular Volume FPLC [1]: 11.2 kDa
Volume FPLC (diameter) [1]: 3.0 nm
Volume FPLC [1]: 11.2 kDa
Cell NSB (percent of cells with fluorescence higher than unstained cell) [2]: 50%
Quantum Yield ([3]; Table 3B, IR-783 dipeptides): 0.15
Quant. Yield [3]: 0.13
Serum half-life [4]: 1.4 min

(DOTA)Lys(PEG10K)-Cys(IR-783) [PN(783)6.1]
Molecular Volume FPLC [1]: 100.7 kDa
Volume FPLC (diameter) [1]: 6.1 nm
Volume FPLC [1]: 100.7 kDa
Cell NSB (percent of cells with fluorescence higher than unstained cell) [2]: 14%
Quantum Yield ([3]; Table 3B, IR-783 dipeptides): 0.17
Quant. Yield [3]: 0.16
circulating form after injection (FPLC elution vs pre-injection sample) [5]: identical for pre-injection samples and for sera from injected mice

(DOTA)Lys(PEG20K)-Cys(IR-783) [PN(783)8.4]
Molecular Volume FPLC [1]: 262.5 kDa
Volume FPLC (diameter) [1]: 8.4 nm
Volume FPLC [1]: 262.5 kDa
Cell NSB (percent of cells with fluorescence higher than unstained cell) [2]: 14%
Quantum Yield ([3]; Table 3B, IR-783 dipeptides): 0.17
Quant. Yield [3]: 0.16
Serum half-life [4]: 17.6 min

Cy3
reference quantum yield [6]: 0.31

DOTA-Lys(CyAL5.5)-Lys(5 kDa PEG)- βAla -Lys(sPEG-RAD) [Compound 7b]
tumor retention of probe fluorescence after peritumoral injection [7]: cleared by 24 hours post injection
clearance from intramuscular injection site [8]: detectable fluorescence was not found
Equiv. Vol. ([9]; FPLC, globular protein equivalent volume): 25 kDa
Molecular Volume ([9]; Table 3A, tetrapeptides): 20 kDa
Molecular Volume ([9]; Table 4, DMR probes): 20-30 kDa
Quantum Yield ([3]; Table 3A, CyAL5.5 tetrapeptides): 0.20
Quantum Yield ([3]; Table 4, DMR probes): 0.20
